Paper PMC7022630 (Biomolecules, 2020)

Target: the molecule itself
Assay: SEC-MALS; Superdex 200 10/300 GL; 20 mM Tris-HCl pH 7.5, 150 mM sodium chloride, 0.5 mM TCEP; 100 μL of monomer and dimer fractions of NDRG3 ΔNC at 2.0 mg/mL injected separately, 0.4 mL/min

B1: truncated human NDRG3 (residues 29–320, NDRG3 ΔNC) (domain or fragment)
chain: not shown
notes: N-Myc downstream-regulated gene 3 protein (NDRG3), human, 375 amino acids, residues 29-320; Elutes as monomer and dimer fractions; mainly monomer; No removal of the His tag is described; also called NDRG3 ΔNC WT; NDRG3 ΔNC wild type; source: E. coli BLR(DE3), purified (Ni-chelating, Q HP, Superdex 200); for the analytical SEC loaded after the Ni-chelating column
stoichiometry N: 2
